The source of these data is doi:10.1101/2022.09.22.509047, “Deciphering bacteriophage T5 host recognition mechanism and infection trigger” (bioRxiv, 2022).

For this experiment, the target named is T1, E. coli iron ferrichrome transporter FhuA (E. coli, UniProt P06971 34-747).
T1 construct: FhuA, outer-membrane iron-ferrichrome transporter of E. coli; His-tag inserted in extracellular loop L5 after residue 405 (9 residues, not counted in the numbering); residues 1-17 disordered in the map; Lipopolysaccharide copurifies with FhuA; Purification is as in Flayhan et al, 2012; source: E. coli AW740, plasmid-encoded, grown with 100 µM dipyridine, purified; not shown: His6, internal (after …)
T1 sequence (looked up): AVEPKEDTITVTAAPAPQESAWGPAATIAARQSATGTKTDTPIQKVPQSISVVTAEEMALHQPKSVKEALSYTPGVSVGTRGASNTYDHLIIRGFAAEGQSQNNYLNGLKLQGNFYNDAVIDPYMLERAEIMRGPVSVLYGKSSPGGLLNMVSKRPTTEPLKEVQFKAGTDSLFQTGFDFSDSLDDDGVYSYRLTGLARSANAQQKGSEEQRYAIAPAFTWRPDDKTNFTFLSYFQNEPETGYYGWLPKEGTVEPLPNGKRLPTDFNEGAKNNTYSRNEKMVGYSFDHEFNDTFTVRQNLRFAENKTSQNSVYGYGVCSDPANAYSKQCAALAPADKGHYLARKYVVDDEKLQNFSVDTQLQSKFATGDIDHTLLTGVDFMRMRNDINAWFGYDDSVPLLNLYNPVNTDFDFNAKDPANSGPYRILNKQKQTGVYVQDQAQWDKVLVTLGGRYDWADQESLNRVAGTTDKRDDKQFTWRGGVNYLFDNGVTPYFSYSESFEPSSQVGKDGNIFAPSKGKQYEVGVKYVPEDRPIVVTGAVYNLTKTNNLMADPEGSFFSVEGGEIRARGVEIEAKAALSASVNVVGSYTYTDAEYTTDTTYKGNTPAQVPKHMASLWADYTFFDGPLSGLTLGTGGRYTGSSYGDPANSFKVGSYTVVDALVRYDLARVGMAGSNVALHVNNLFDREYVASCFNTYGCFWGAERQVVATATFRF
The experiment in a line: cryo-EM structure; FhuA-RBPpb5 complex formed from equimolar amounts of the two purified proteins; 20 mM Tris, 1.6% C10DAO, 4.3 mg/mL; 2.6 Å average resolution. The note with it: both partners purified.

B1: bacteriophage T5 Receptor Binding Protein pb5 (natural protein)
chain: MSFFAGKLNNKSILSLRRGSGGDTNQHINPDSQTIFHSDMSHVIITETHSTGLRLDQGAGDYYWSEMPSRVTQLHNNDPNRVVLTEIEFSDGSRHMLSGMSMGVGAKAYGIINPQIMSQGGLKTQITASADLSLDVGYFNTGTSGTIPQKLRDGTGCQHMFGAFSGRRGFASSAMYLGGAALYKSAWSGSGYVVADAGTLTIPSDYVRHPGARNFGFNAIYVRGRSCNRVLYGMEGPNYTTGGAVQGASSSGALNFTYNPSNPESPKYSVGFARADPTNYAYWESMGDPNDSANGPIGIYSEHLGIYPSKITWYVTNLVYNGSGYNIDGGLFNGNDIKLSPREFIIKGVNVNNTSWKFINFIEKNFNVGNRADFRDVGCNLSKDSPSTGISGIATFGLPTTESNNAPSIKGGNVGGLHANVVSIYNFLPSASWYVSSNPPKIGNNYGDVWSENLLPLRLLGGSGSTILSGNIVFQGNGSVHVGTVGLDLNSSRNGAIVCTMEFIDDTWLSAGGIGCFNPTEMLSQGAEYGDSRFRIGGNTINKKLHQILSLPAGEYVPFFTIKGTVVNACKLQAAAYNPTPYWVSGLPGSVGQTGYYTLTYYMRNDGNNNISIWLDSSMSNIIGMKACLPNIKLIIQRLT
notes: 640 residues; residues 1-37, 333-352, 365-371 and 427-455 not traced in the map; In the functional rows pb5 stands on the phage T5 tail tip (T5st0), untagged; also called RBPpb5; source: E. coli BL21(DE3), pET-28 vector, 20 °C without induction, purified; not shown: His tag, C-terminal, kept
For B1, the binding result was “binds”.
